Measured values as given in the supplement of paper PMC5998384.

Assays:
HeLa Kyoto [1] = experiment: melting temperature (median over replicates), in situ; higher = more thermally stable
HeLa Kyoto [2] = experiment: solubility in G1/S (NP-40 vs SDS abundance) (log2 ratio); higher = more soluble; conditions: cell cycle stage: G1/S
HeLa Kyoto [3] = experiment: thermal stability score vs G1/S (z-score of summed log2 fold changes over temperatures); higher = more thermally stable than in G1/S
HeLa Kyoto [4] = experiment: solubility change mitosis vs G1/S (difference of NP-40 vs SDS log2 ratios) (log2 ratio difference); higher = more soluble in mitosis
[5] = cell cycle stage: early G1 (4.5 h after nocodazole release)
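Throughout, for melting temperature (median over replicates), in situ: HeLa Kyoto cells synchronized by double thymidine or nocodazole block, proteins quantified by TMT10plex mass spectrometry, three independent biological replicates.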
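Throughout, for solubility change mitosis vs G1/S (difference of NP-40 vs SDS log2 ratios): synchronized HeLa Kyoto cells (double thymidine block for G1/S, nocodazole release for mitosis), protein amounts in NP-40 versus SDS lysates quantified by mass spectrometry, three biological replicates.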
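Throughout, for solubility in G1/S (NP-40 vs SDS abundance): HeLa Kyoto cells arrested at G1/S by double thymidine block, proteins quantified by TMT10plex mass spectrometry in mild NP-40 versus SDS extracts, three biological replicates.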
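Throughout, for thermal stability score vs G1/S (z-score of summed log2 fold changes over temperatures): synchronized HeLa Kyoto cells, proteins quantified by TMT10plex mass spectrometry, three biological replicates, mitosis taken 0.5 h after nocodazole release, G1/S directly after double thymidine block.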

Sequence of ARFGAP2 (chain, as listed by the source): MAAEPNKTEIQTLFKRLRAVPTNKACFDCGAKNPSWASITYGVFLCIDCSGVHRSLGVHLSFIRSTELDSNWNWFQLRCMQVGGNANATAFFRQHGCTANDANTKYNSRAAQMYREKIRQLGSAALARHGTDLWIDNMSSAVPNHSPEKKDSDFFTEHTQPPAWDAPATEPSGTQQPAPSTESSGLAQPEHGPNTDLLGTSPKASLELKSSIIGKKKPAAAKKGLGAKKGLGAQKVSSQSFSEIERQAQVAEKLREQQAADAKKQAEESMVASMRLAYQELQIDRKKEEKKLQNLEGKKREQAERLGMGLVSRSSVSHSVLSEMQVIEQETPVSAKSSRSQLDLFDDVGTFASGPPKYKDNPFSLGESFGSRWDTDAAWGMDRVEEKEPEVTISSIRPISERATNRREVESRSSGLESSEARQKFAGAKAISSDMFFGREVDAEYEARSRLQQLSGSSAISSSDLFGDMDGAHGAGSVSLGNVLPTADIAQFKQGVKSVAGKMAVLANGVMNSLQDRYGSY
Sequence of THBS1 (chain, as listed by the source): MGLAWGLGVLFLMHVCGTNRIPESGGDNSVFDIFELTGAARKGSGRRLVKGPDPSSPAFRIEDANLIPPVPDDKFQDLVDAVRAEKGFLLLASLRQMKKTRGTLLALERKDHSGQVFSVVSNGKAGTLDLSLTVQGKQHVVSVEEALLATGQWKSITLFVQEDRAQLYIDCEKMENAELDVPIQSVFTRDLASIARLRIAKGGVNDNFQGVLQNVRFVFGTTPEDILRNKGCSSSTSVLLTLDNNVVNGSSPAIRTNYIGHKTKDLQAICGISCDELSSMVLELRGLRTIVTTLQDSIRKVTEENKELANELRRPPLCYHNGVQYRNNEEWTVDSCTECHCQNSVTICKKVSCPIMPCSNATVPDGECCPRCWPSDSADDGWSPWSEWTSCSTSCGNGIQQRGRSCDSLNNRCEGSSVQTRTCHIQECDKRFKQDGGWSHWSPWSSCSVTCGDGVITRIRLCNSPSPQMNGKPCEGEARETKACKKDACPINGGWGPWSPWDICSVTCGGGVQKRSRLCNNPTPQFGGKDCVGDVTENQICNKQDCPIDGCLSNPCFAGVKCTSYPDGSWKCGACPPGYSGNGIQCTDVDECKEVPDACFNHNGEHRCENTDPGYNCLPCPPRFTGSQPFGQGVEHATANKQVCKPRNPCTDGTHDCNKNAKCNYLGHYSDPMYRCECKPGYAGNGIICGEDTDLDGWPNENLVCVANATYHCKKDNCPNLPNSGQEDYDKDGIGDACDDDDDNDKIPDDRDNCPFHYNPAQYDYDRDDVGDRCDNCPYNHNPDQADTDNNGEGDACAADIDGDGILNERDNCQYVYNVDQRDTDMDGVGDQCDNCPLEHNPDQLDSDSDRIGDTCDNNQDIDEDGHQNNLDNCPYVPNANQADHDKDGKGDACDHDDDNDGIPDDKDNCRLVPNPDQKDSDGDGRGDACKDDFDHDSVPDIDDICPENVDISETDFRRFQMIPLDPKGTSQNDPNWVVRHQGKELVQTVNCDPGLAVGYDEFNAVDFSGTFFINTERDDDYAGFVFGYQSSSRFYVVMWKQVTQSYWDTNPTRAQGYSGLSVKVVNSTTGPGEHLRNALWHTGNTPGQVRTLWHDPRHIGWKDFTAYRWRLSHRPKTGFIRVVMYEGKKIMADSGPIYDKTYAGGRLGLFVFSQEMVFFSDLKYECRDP
Sequence of ANKH (chain, as listed by the source): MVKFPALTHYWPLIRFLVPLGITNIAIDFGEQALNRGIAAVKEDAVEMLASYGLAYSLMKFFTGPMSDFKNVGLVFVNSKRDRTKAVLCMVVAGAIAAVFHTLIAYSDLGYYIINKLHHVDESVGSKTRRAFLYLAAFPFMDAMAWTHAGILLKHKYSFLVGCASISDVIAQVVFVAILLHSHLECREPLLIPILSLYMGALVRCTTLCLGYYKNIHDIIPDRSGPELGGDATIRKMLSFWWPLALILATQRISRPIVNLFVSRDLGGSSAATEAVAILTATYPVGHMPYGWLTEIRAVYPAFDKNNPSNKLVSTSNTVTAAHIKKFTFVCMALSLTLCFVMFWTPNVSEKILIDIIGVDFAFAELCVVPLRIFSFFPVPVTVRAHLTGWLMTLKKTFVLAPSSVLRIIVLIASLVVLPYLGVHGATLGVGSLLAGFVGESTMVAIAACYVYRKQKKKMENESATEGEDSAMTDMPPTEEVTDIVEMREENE

| Substance | melting temperature (HeLa Kyoto [1]; cell cycle stage: G1/S) [°C] | melting temperature (HeLa Kyoto [1]; cell cycle stage: mitosis) [°C] | solubility in G1/S (log2) (HeLa Kyoto [2]) | thermal stability score (HeLa Kyoto [3]; [5]) | thermal stability score (HeLa Kyoto [3]; cell cycle stage: mitosis) | solubility change mitosis (log2) (HeLa Kyoto [4]) |
| --- | --- | --- | --- | --- | --- | --- |
| AKAP9 | 49.3 | 49.6 | -0.0993 | 1.11 | 1.77 | -0.0345 |
| ALDH3A2 | 51 | 50.7 | -0.186 | -0.835 | -0.622 | -0.0531 |
| ANKH | 54.9 | 58.2 | -0.292 | -1.21 | -1.75 | 0.155 |
| ARFGAP2 | 49.6 | 49.4 | 0.205 | -0.318 | -0.233 | -0.11 |
| ARFGEF2 | 50.7 | 50.5 | -0.186 | 0.0515 | -0.274 | -0.155 |
| ARHGAP35 | 48.6 | 49.4 | -0.0977 | 1.69 | 3.46 | -0.124 |
| ARHGEF12 | 50.7 | 50.4 | -0.0555 | -0.146 | 0.3 | -0.0996 |
| ASL | 51.4 | 52.1 | -0.0391 | 3.02 | 4.07 | 0.00521 |
| ATP1B3 | 55.5 | 56.1 | 0.832 | -1.58 | -2.77 | 0.0393 |
| MTTEQRRSLQAFQDYIRKTLDPTYILSYMAPWFREEEVQYIQAEKNNKGPMEAATLFLKFLLELQEEGWFRGFLDALDHAGYSGLYEAIESWDFKKIEKLEEYRLLLKRLQPEFKTRIIPTDIISDLSECLINQECEEILQICSTKGMMAGAEKLVECLLRSDKENWPKTLKLALEKERNKFSELWIVEKGIKDVETEDLEDKMETSDIQIFYQEDPECQNLSENSCPPSEVSDTNLYSPFKPRNYQLELALPAMKGKNTIICAPTGCGKTFVSLLICEHHLKKFPQGQKGKVVFFANQIPVYEQQKSVFSKYFERHGYRVTGISGATAENVPVEQIVENNDIIILTPQILVNNLKKGTIPSLSIFTLMIFDECHNTSKQHPYNMIMFNYLDQKLGGSSGPLPQVIGLTASVGVGDAKNTDEALDYICKLCASLDASVIATVKHNLEELEQVVYKPQKFFRKVESRISDKFKYIIAQLMRDTESLAKRICKDLENLSQIQNREFGTQKYEQWIVTVQKACMVFQMPDKDEESRICKALFLYTSHLRKYNDALIISEHARMKDALDYLKDFFSNVRAAGFDEIEQDLTQRFEEKLQELESVSRDPSNENPKLEDLCFILQEEYHLNPETITILFVKTRALVDALKNWIEGNPKLSFLKPGILTGRGKTNQNTGMTLPAQKCILDAFKASGDHNILIATSVADEGIDIAQCNLVILYEYVGNVIKMIQTRGRGRARGSKCFLLTSNAGVIEKEQINMYKEKMMNDSILRLQTWDEAVFREKILHIQTHEKFIRDSQEKPKPVPDKENKKLLCRKCKALACYTADVRVIEECHYTVLGDAFKECFVSRPHPKPKQFSSFEKRAKIFCARQNCSHDWGIHVKYKTFEIPVIKIESFVVEDIATGVQTLYSKWKDFHFEKIPFDPAEMSK [DDX58] |  |  | -0.211 | 0.775 | 0.756 | -0.199 |
| MVDRLANSEANTRRISIVENCFGAAGQPLTIPGRVLIGEGVLTKLCRKKPKARQFFLFNDILVYGNIVIQKKKYNKQHIIPLENVTIDSIKDEGDLRNGWLIKTPTKSFAVYAATATEKSEWMNHINKCVTDLLSKSGKTPSNEHAAVWVPDSEATVCMRCQKAKFTPVNRRHHCRKCGFVVCGPCSEKRFLLPSQSSKPVRICDFCYDLLSAGDMATCQPARSDSYSQSLKSPLNDMSDDDDDDDSSD [PLEKHF2] |  |  | 0.163 | 0.212 | 0.829 | -0.0311 |
| MWHEARKHERKLRGMMVDYKKRAERRREYYEKIKKDPAQFLQVHGRACKVHLDSAVALAAESPVNMMPWQGDTNNMIDRFDVRAHLDHIPDYTPPLLTTISPEQESDERKCNYERYRGLVQNDFAGISEEQCLYQIYIDELYGGLQRPSEDEKKKLAEKKASIGYTYEDSTVAEVEKAAEKPEEEESAAEEESNSDEDEVIPDIDVEVDVDELNQEQVADLNKQATTYGMADGDFVRMLRKDKEEAEAIKHAKALEEEKAMYSGRRSRRQRREFREKRLRGRKISPPSYARRDSPTYDPYKRSPSESSSESRSRSRSPTPGREEKITFITSFGGSDEEAAAAAAAAAASGVTTGKPPAPPQPGGPAPGRNASARRRSSSSSSSSSASRTSSSRSSSRSSSRSRRGGGYYRSGRHARSRSRSWSRSRSRSRRYSRSRSRGRRHSGGGSRDGHRYSRSPARRGGYGPRRRSRSRSHSGDRYRRGGRGLRHHSSSRSRSSWSLSPSRSRSLTRSRSHSPSPSQSRSRSRSRSQSPSPSPAREKLTRPAASPAVGEKLKKTEPAAGKETGAAKPKLTPQEKLKLRMQKALNRQFKADKKAAQEKMIQQEHERQEREDELRAMARKIRMKERERREKEREEWERQYSRQSRSPSPRYSREYSSSRRRSRSRSRSPHYRH [CLASRP] |  |  | -0.572 | 0.728 | 0.776 | 0.526 |
| NHSL1 |  |  | -0.0561 | 0.447 | 1.09 | -0.0684 |
| PPL |  |  | -0.342 | -0.748 | 1.36 | 0.304 |
| SVIL |  |  | -1.65 | -0.947 | 0.478 | 0.176 |
| TACC1 |  |  | 0.335 | -4.04 | -4.77 | -0.0581 |
| THBS1 |  |  | -0.19 | 4.61 | 5.07 | 0.0125 |
| URB2 |  |  | -1.43 | 1.35 | 1.43 | 0.744 |
